Among the data in the supplement of paper PMC10567573 are protein stability index values, retold here.

Sequences and labels used below:
B1: GNB5 (parent)
chain: YYPSGDAFASGSDDATCRLYDLRA
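Further: lentivirally expressed fusions sorted by FACS into six bins by GFP to DsRed ratio, PSI derived from sequencing read proportions per bin multiplied by bin number.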

This data set covers variants of B1. The data set can be described thus: protein stability index of a GFP-peptide fusion (GPS, HEK-293T) (PSI 1-6); higher = more stable. Particulars: c terminus: a fixed tail appended.
Take YYPVGDAFASGSDDATCRLYDLRA [S4V]: the protein stability index was 2.56.
As for YYPYGDAFASGSDDATCRLYDLRA [S4Y], the figure is 2.82; as for YYPWGDAFASGSDDATCRLYDLRA [S4W], 2.49.
With YYPSGDAFTSGSDDATCRLYDLRA [A9T], the protein stability index was determined as 2.36.
As for YYPSGDAFMSGSDDATCRLYDLRA [A9M], the protein stability index came out at 2.45.
As for YYPSGDAFCSGSDDATCRLYDLRA [A9C], the figure is 2.36; as for YYPSGDAFNSGSDDATCRLYDLRA [A9N], 2.65; as for YYPSGDAFYSGSDDATCRLYDLRA [A9Y], 2.04.
YYPSGDAFISGSDDATCRLYDLRA [A9I]: the protein stability index came to 2.12.
As for YYPSGDAFESGSDDATCRLYDLRA [A9E], the figure is 3.17; as for YYPSGDAFDSGSDDATCRLYDLRA [A9D], 3.6.
As for YYPSGDAFPSGSDDATCRLYDLRA [A9P], the protein stability index turned out to be 3.06.
In the case of YYPSGDAFSSGSDDATCRLYDLRA [A9S], the protein stability index turned out to be 2.56.
As for YYPSGDAFLSGSDDATCRLYDLRA [A9L], the figure is 1.99; as for YYPSGDAFQSGSDDATCRLYDLRA [A9Q], 2.36.
For the variant YYPSGDAFWSGSDDATCRLYDLRA [A9W], the protein stability index turned out to be 1.72.
Take YYPSGDAFRSGSDDATCRLYDLRA [A9R]: the protein stability index is 2.17.
As for YYPSGDAFVSGSDDATCRLYDLRA [A9V], the figure is 2.32.
As for YYPSGDAFGSGSDDATCRLYDLRA [A9G], the figure is 2.41.
The same measure for YYPSGDAFHSGSDDATCRLYDLRA [A9H]: 2.15; for YYPSGDAFFSGSDDATCRLYDLRA [A9F]: 1.9.
Turning to YYPSGDAFKSGSDDATCRLYDLRA [A9K], the protein stability index turned out to be 2.22.
As for YYPSGDAFASGSSDATCRLYDLRA [D13S], the figure is 2.28; as for YYPSGDAFASGSADATCRLYDLRA [D13A], 1.86.
As to YYPSGDAFASGSLDATCRLYDLRA [D13L], the protein stability index worked out at 1.93.
The same measure for YYPSGDAFASGSIDATCRLYDLRA [D13I]: 2.27; for YYPSGDAFASGSTDATCRLYDLRA [D13T]: 1.76; for YYPSGDAFASGSMDATCRLYDLRA [D13M]: 1.66.
As for YYPSGDAFASGSEDATCRLYDLRA [D13E], the figure is 2.27.
As for YYPSGDAFASGSQDATCRLYDLRA [D13Q], the protein stability index amounted to 2.2.
The same measure for YYPSGDAFASGSWDATCRLYDLRA [D13W]: 1.65; for YYPSGDAFASGSGDATCRLYDLRA [D13G]: 1.89; for YYPSGDAFASGSHDATCRLYDLRA [D13H]: 2.23.
Regarding YYPSGDAFASGSVDATCRLYDLRA [D13V], the protein stability index turned out to be 1.78.
The same measure for YYPSGDAFASGSCDATCRLYDLRA [D13C]: 1.56.
The same measure for YYPSGDAFASGSNDATCRLYDLRA [D13N]: 2.38.
For the variant YYPSGDAFASGSRDATCRLYDLRA [D13R], the protein stability index is 1.88.
With YYPSGDAFASGSKDATCRLYDLRA [D13K], the protein stability index was determined as 2.25.
As for YYPSGDAFASGSFDATCRLYDLRA [D13F], the figure is 1.63.
As for YYPSGDAFASGSPDATCRLYDLRA [D13P], the protein stability index was determined as 2.19.
Take YYPSGDAFASGSYDATCRLYDLRA [D13Y]: the protein stability index stood at 2.11.
The same measure for YYPSGDAFASHSDDATCRLYDLRA [G11H]: 2.44; for YYPSGDAFASESDDATCRLYDLRA [G11E]: 2.81; for YYPSGDAFASCSDDATCRLYDLRA [G11C]: 2.09.
The same measure for YYPSGDAFASPSDDATCRLYDLRA [G11P]: 2.31; for YYPSGDAFASISDDATCRLYDLRA [G11I]: 1.89.
Consider YYPSGDAFASSSDDATCRLYDLRA [G11S], for which the protein stability index was 2.08.
With YYPSGDAFASMSDDATCRLYDLRA [G11M], the protein stability index was found to be 1.66.
As for YYPSGDAFASQSDDATCRLYDLRA [G11Q], the figure is 2.14; as for YYPSGDAFASASDDATCRLYDLRA [G11A], 2.23.
As for YYPSGDAFASRSDDATCRLYDLRA [G11R], the figure is 1.83; as for YYPSGDAFASLSDDATCRLYDLRA [G11L], 2.89; as for YYPSGDAFASTSDDATCRLYDLRA [G11T], 2.28.
For YYPSGDAFASNSDDATCRLYDLRA [G11N], the protein stability index was found to be 2.64.
Turning to YYPSGDAFASYSDDATCRLYDLRA [G11Y], the protein stability index was found to be 1.98.
As for YYPSGDAFASVSDDATCRLYDLRA [G11V], the figure is 1.94; as for YYPSGDAFASFSDDATCRLYDLRA [G11F], 1.99; as for YYPSGDAFASKSDDATCRLYDLRA [G11K], 1.94.
Take YYPSGDAFASDSDDATCRLYDLRA [G11D]: the protein stability index worked out at 2.74.
In the case of YYPSGDAFASWSDDATCRLYDLRA [G11W], the protein stability index came out at 2.11.
As for YYPSGKAFASGSDDATCRLYDLRA [D6K], the protein stability index amounted to 1.64.
As for YYPSGCAFASGSDDATCRLYDLRA [D6C], the figure is 2.03.
Regarding YYPSGGAFASGSDDATCRLYDLRA [D6G], the protein stability index was 2.72.
Take YYPSGPAFASGSDDATCRLYDLRA [D6P]: the protein stability index came to 2.81.
The same measure for YYPSGVAFASGSDDATCRLYDLRA [D6V]: 2.35; for YYPSGLAFASGSDDATCRLYDLRA [D6L]: 2.06; for YYPSGYAFASGSDDATCRLYDLRA [D6Y]: 1.97.
The same measure for YYPSGTAFASGSDDATCRLYDLRA [D6T]: 2.13; for YYPSGEAFASGSDDATCRLYDLRA [D6E]: 2.43; for YYPSGSAFASGSDDATCRLYDLRA [D6S]: 2.52.
As to YYPSGAAFASGSDDATCRLYDLRA [D6A], the protein stability index amounted to 2.31.
For the variant YYPSGHAFASGSDDATCRLYDLRA [D6H], the protein stability index amounted to 2.26.
The same measure for YYPSGIAFASGSDDATCRLYDLRA [D6I]: 1.89; for YYPSGWAFASGSDDATCRLYDLRA [D6W]: 1.52.
As for YYPSGQAFASGSDDATCRLYDLRA [D6Q], the figure is 1.83; as for YYPSGRAFASGSDDATCRLYDLRA [D6R], 1.91; as for YYPSGFAFASGSDDATCRLYDLRA [D6F], 2.14.
Consider YYPSGMAFASGSDDATCRLYDLRA [D6M], for which the protein stability index came to 1.92.
As to YYPSGNAFASGSDDATCRLYDLRA [D6N], the protein stability index came to 2.11.
The same measure for YYPSGDAFASGSDKATCRLYDLRA [D14K]: 1.93; for YYPSGDAFASGSDGATCRLYDLRA [D14G]: 2.52.
The same measure for YYPSGDAFASGSDPATCRLYDLRA [D14P]: 2.12.
As for YYPSGDAFASGSDCATCRLYDLRA [D14C], the figure is 2.39.
For the variant YYPSGDAFASGSDNATCRLYDLRA [D14N], the protein stability index was determined as 1.98.
For the variant YYPSGDAFASGSDMATCRLYDLRA [D14M], the protein stability index came to 2.21.
As for YYPSGDAFASGSDEATCRLYDLRA [D14E], the figure is 2.55; as for YYPSGDAFASGSDFATCRLYDLRA [D14F], 2.12; as for YYPSGDAFASGSDLATCRLYDLRA [D14L], 1.92.
Consider YYPSGDAFASGSDHATCRLYDLRA [D14H], for which the protein stability index was found to be 2.2.
Regarding YYPSGDAFASGSDQATCRLYDLRA [D14Q], the protein stability index was 2.27.
For the variant YYPSGDAFASGSDRATCRLYDLRA [D14R], the protein stability index stood at 1.9.
The same measure for YYPSGDAFASGSDIATCRLYDLRA [D14I]: 2.65; for YYPSGDAFASGSDAATCRLYDLRA [D14A]: 1.91.
On to YYPSWDAFASGSDDATCRLYDLRA [G5W], for which the protein stability index turned out to be 2.37.
